This is an account of results in publication PMC12775124, “CUL4A-DDB1-DCAF10 is an N-recognin for N-terminally acetylated Src kinases” (Nature Communications, 2026).

Test [1] deals with Lyn. The test is described as follows: Lyn level after FLAG-DCAF10 overexpression. It is filed as cell-based, human. Particulars: HeLa, NMT1/2 KD 72 h, FLAG-DCAF10 overexpression 24 h. On the procedure: (§1) 124 Supplementary Fig. 5. NMT1/2 knockdown leads to an increased turnover of SFKs
(§2) 125 and overexpression of DCAF10 reduces SFK levels after NMT1/2 knockdown.
(§3) 126 a) HeLa cells were treated with NMT1/2 siRNA for 72 h or left untreated in combination
(§4) 127 with FLAG-DCAF10 overexpression for 24 h. Representative WBs are shown. b-c) Left:
(§5) 128 WB quantifications with and without NMT1/2 siRNA of Lyn (b) and THOC7 (c)
(§6) Right: Fold change of Lyn (b) and THOC7 (c) after DCAF10
(§7) 130 overexpression. Untreated: purple; with NMT1/2 RNAi: blue. Individual data points are
(§8) 131 indicated (n = 2 or 3 independent biological replicates). MG132 = proteasome inhibitor;
(§9) 132 CHX = cycloheximide translational inhibitor. d) HeLa cells were treated for 72 h with and
(§10) 133 without NMT1/2 siRNA and treated with cycloheximide or MG132 for the indicated
(§11) 134 periods of time. Representative WBs are shown. Filled circles indicate treatment; empty
(§12) 135 circles indicate no treatment. e-h) Fold-change analysis of protein expression levels under
(§13) 136 the indicated conditions. Left: fold change after 8 h cycloheximide treatment of (e) Lyn,
(§14) 137 (f) Fyn, (g) Src and (h) THOC7. Right: fold change after 4 h MG132 treatment of (e) Lyn,
(§15) Untreated: purple; with NMT1/2 siRNA: blue (n = 3 […]
(§16) 412 serum (FBS). Cells were counted and diluted to 100,000 cells/mL. […]
(§17) 433 fraction was measured by MS (see Mass spectrometry measurements and raw file […]

For test [2], the system named is THOC7. Description: THOC7 level after FLAG-DCAF10 overexpression. It is filed as cell-based, human. The settings on record: HeLa, NMT1/2 KD 72 h, FLAG-DCAF10 overexpression 24 h. On the procedure:
as §1, §2, §3, §4, §5, §6, §7, §8, §9, §10, §11, §12, §13, §14, §15, §16, §17

Test [3] deals with Lyn. The test is described as follows: In vitro ubiquitination of immunoprecipitated Lyn. In kind it is biochemical, human. The settings on record: DCAF10 pocket mutant complex. From the text:
(§18) Having established cellular regulation by DCAF10 under reduced N-myristoylation, we aimed to test whether CUL4A-DDB1-DCAF10 directly ubiquitinates SFKs. […] As we expect NMT1/2 depletion to cause a destabilization of SFKs, their equal or even greater ubiquitination in IPs from untreated cells relative to NMT1/2-depleted cells was unanticipated. We speculate that (i) Nt-acetylated SFKs may degrade rapidly, preventing their accumulation upon NMT1/2 depletion; (ii) an acetylated fraction of SFKs may exist under physiological conditions; (iii) DCAF10 might recognize additional surfaces.
(§19) Reactions contained E1, UBCH5B (E2), ubiquitin, Mg-ATP in ligation buffer and were incubated with bead-bound substrates, followed by washing and immunoblot detection of ubiquitinated species (anti-ubiquitin), with loading controls (anti-Lyn, -Fyn, -Src or -GFP) (n = 3 independent enzymatic assays). Complete reagent lists, complex preparation, substrate IP conditions, wash buffers, and gel/blot parameters are provided in the Supplementary Methods and Tables.
(§20) 357 (v/v) glycerol, 2 mM TCEP, supplemented with Protease Inhibitor Cocktail), and lysed
(§21) 358 by sonication. Lysates were cleared by centrifugation at 28,000 rpm for 45 min at 4 °C […]
(§22) 382 EDTA, and loaded on a gradient gel (4–15%). Ubiquitination of substrates was assessed
(§23) 383 by WB using an anti-ubiquitin antibody. Equal substrate loading was evaluated by anti- […]

The subject of test [4] is Fyn. Description: In vitro ubiquitination of immunoprecipitated Fyn. The settings on record: DCAF10 pocket mutant complex. In kind it is biochemical, human.
Excerpt: as §18, §19, §20, §21, §22, §23

Test [5] relates to Src. The test is described as follows: In vitro ubiquitination of immunoprecipitated Src. It is filed as biochemical, human. The settings on record: DCAF10 pocket mutant complex.
Excerpt: as §18, §19, §20, §21, §22, §23

Positions count from the first letter of the chain named. Numbers in names are those of the source.

B1: FLAG-DCAF10: FLAG-DCAF10 overexpression in HeLa cells (protein, UniProt Q5QP82 1-559, looked up)
DDB1- and CUL4-associated …: MFPFGPHSPGGDGSAGAGAEEPTPHEGQAAATGPPSPLHPGADATHPPPPARSPRRPGAPSLSPAPRSGELGLPGAPESSTASAPGEPSPPSPPCRRPGPDCRAKSRGRHGLGAGLGGPGARLFGWLKERSLGRGLFVDPARDNFRTMTSLYGSIHPADSVYLSTRTHGAVFNLEYSPDGSVLTVACEQTEVLLFDPISSKHIKTLSEAHEDCVNNIRFLDNRLFATCSDDTTIALWDLRKLNTKVCTLHGHTSWVKNIEYDTNTRLLVTSGFDGNVIIWDTNRYTEDGCPHKKFFHTRFLMRMRLTPDCSKMLISTSSGYLLILHDLDLTKSLEVGSYPILRARRTTSSSDLTTSSSSSGPRVSGSPCHHSDSNSSEKHMSRASQREGVSPRNSLEVVTPEVLGESDHGNCITSLQLHPKGWATLLRCSSNSDDEECTCVYEFQEGAPVRPVSPRCSLRLTHYIEEANVGRGYIKELCFSPDGRMISSPHGYGIRLLGFDKQCSELVDCLPKEASPLRVIRSLYSHNDVVLTTKFSPTHCQIASGCLSGRVSLYQPKF
modifications: FLAG tag
notes: FLAG-DCAF10 overexpression in HeLa cells
Regarding B1, the “Lyn level, fold decrease compared to control cells” value in test [1] is given as ~ 2.1 fold. Besides, the “THOC7 level (in words)” value in test [2] was “remained unchanged”.

B2: DCAF10 triple mutant: DCAF10 triple mutant (F172G, K257A, and I475G) in E3 complex (protein)
chain: B1 DDB1- and CUL4-associated … with F172G, K257A, I475G
modifications: left off: MBP (as in the WT complex; not said for the mutant), end not stated, state not stated
For the molecule B2, the “Lyn ubiquitination (in words)” value in test [3] is “abolished ubiquitination of Lyn and Fyn”. The “Fyn ubiquitination (in words)” value in test [4] was “abolished ubiquitination of Lyn and Fyn”. The “Src ubiquitination (in words)” value in test [5] is on record as “Src ubiquitination was unaffected by the mutations”.
